The supplement of paper PMC9112550, “Optimization of the antimicrobial peptide Bac7 by deep mutational scanning” (BMC Biology, 2022)

Test system: Escherichia coli TOP10
Test: shrunken log2 fold change of peptide-encoding DNA abundance (4.5 h post-induction vs induction); higher = less antimicrobial activity (less host growth inhibition)
Details: time post-induction: 4.5 h; library: site-saturation at positions 5, 18, 19, 20
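Also: peptides expressed intracellularly from a pBAD plasmid library in pooled LB shake-flask culture, induced with 0.3% L-arabinose, DNA abundance read by NGS, three biological replicates, DESeq2 with apeglm shrinkage.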

Sequence | shrunken log2 fold change
RRIRERPPRLPRPRPRPQCRPRP | -0.401
RRIRTRPPRLPRPRPRPMLIPRP | 0.0601
RRIRTRPPRLPRPRPRPFPRPRP | 0.0242
RRIRSRPPRLPRPRPRPGDIPRP | -0.198
RRIRMRPPRLPRPRPRPFYFPRP | -0.569
RRIRMRPPRLPRPRPRPLNRPRP | 0.0437
RRIRPRPPRLPRPRPRPEESPRP | -0.0202
RRIRRRPPRLPRPRPRPFALPRP | -0.00461
RRIRHRPPRLPRPRPRPAQGPRP | -0.197
RRIRARPPRLPRPRPRPEYLPRP | -0.00441
RRIRLRPPRLPRPRPRPRTCPRP | -0.258
RRIRFRPPRLPRPRPRPMFYPRP | -1.51
RRIRRRPPRLPRPRPRPYTPPRP | -0.225
RRIRMRPPRLPRPRPRPKGQPRP | 1.28
RRIRYRPPRLPRPRPRPVLNPRP | -0.258
RRIRVRPPRLPRPRPRPDTGPRP | -0.00804
RRIRARPPRLPRPRPRPVKVPRP | 0.0388
RRIRERPPRLPRPRPRPIINPRP | -0.702
RRIRLRPPRLPRPRPRPDGEPRP | -0.00819
RRIRTRPPRLPRPRPRPEGQPRP | 0.0344
RRIRGRPPRLPRPRPRPNYIPRP | -0.099
RRIRKRPPRLPRPRPRPCCVPRP | 0.265
RRIRTRPPRLPRPRPRPICVPRP | -0.289
RRIRCRPPRLPRPRPRPIIVPRP | -0.425
RRIRARPPRLPRPRPRPLSIPRP | -0.308

Sequence | shrunken log2 fold change
RRIRVRPPRLPRPRPRPKCCPRP | -0.0953
RRIRGRPPRLPRPRPRPHHPPRP | 1.21
RRIRIRPPRLPRPRPRPQQRPRP | -0.104
RRIRRRPPRLPRPRPRPHSLPRP | -0.113
RRIRPRPPRLPRPRPRPWMGPRP | -0.114
RRIRNRPPRLPRPRPRPNETPRP | -0.0424
RRIRYRPPRLPRPRPRPGDNPRP | -0.0446
RRIRSRPPRLPRPRPRPIWFPRP | 0.112
RRIRFRPPRLPRPRPRPEQGPRP | 0.313
RRIRTRPPRLPRPRPRPLCMPRP | -0.385
RRIRRRPPRLPRPRPRPLKSPRP | -0.215
RRIRTRPPRLPRPRPRPPRAPRP | 0.786
RRIRMRPPRLPRPRPRPPFMPRP | 0.296
RRIRCRPPRLPRPRPRPRLTPRP | 0.0689
RRIRYRPPRLPRPRPRPLVRPRP | -0.0244
RRIRCRPPRLPRPRPRPFYVPRP | -0.825
RRIRRRPPRLPRPRPRPPFQPRP | 0.746
RRIRTRPPRLPRPRPRPGKSPRP | -0.402
RRIRFRPPRLPRPRPRPRHGPRP | 0.155
RRIRVRPPRLPRPRPRPNNGPRP | -0.497
RRIRWRPPRLPRPRPRPWNIPRP | -0.0879
RRIRSRPPRLPRPRPRPANHPRP | -0.606
RRIRRRPPRLPRPRPRPQCCPRP | 0.49
RRIRYRPPRLPRPRPRPQPVPRP | -0.258
RRIRKRPPRLPRPRPRPQYKPRP | -0.343

Sequence | shrunken log2 fold change
RRIRYRPPRLPRPRPRPPGLPRP | 0.148
RRIRLRPPRLPRPRPRPLTIPRP | -0.0053
RRIRLRPPRLPRPRPRPPENPRP | 0.588
RRIRERPPRLPRPRPRPSEIPRP | -0.16
RRIRKRPPRLPRPRPRPEVWPRP | 0.951
RRIRHRPPRLPRPRPRPASLPRP | -0.0081
RRIRVRPPRLPRPRPRPGNHPRP | -0.245
RRIRLRPPRLPRPRPRPPFSPRP | -0.25
RRIRNRPPRLPRPRPRPQKSPRP | -0.101
RRIRCRPPRLPRPRPRPVWWPRP | 0.261
RRIRARPPRLPRPRPRPGVQPRP | 0.0878
RRIRSRPPRLPRPRPRPPVTPRP | -0.0798
RRIRDRPPRLPRPRPRPPNPPRP | 0.0735
RRIRQRPPRLPRPRPRPLKPPRP | 0.0722
RRIRSRPPRLPRPRPRPWTAPRP | -0.22
RRIRCRPPRLPRPRPRPFGYPRP | -0.174
RRIRPRPPRLPRPRPRPGDPPRP | 0.364
RRIRHRPPRLPRPRPRPCNDPRP | -0.283
RRIRKRPPRLPRPRPRPWFRPRP | 0.00108
RRIRCRPPRLPRPRPRPELKPRP | 0.0478
RRIRIRPPRLPRPRPRPWPCPRP | -0.0182
RRIRSRPPRLPRPRPRPCGHPRP | 0.0213
RRIRYRPPRLPRPRPRPTWYPRP | -0.168
RRIRHRPPRLPRPRPRPCIGPRP | -0.58
RRIRRRPPRLPRPRPRPPEMPRP | 0.66

Sequence | shrunken log2 fold change
RRIRNRPPRLPRPRPRPKSEPRP | -0.414
RRIRGRPPRLPRPRPRPKHTPRP | 0.743
RRIRERPPRLPRPRPRPIRLPRP | -0.0614
RRIRRRPPRLPRPRPRPTPLPRP | 0.744
RRIRPRPPRLPRPRPRPLGAPRP | 0.426
RRIRIRPPRLPRPRPRPSTMPRP | -1.18
RRIRPRPPRLPRPRPRPKHSPRP | -0.155
RRIRARPPRLPRPRPRPFTNPRP | -0.273
RRIRNRPPRLPRPRPRPFYNPRP | -0.484
RRIRHRPPRLPRPRPRPNPHPRP | -0.35
RRIRGRPPRLPRPRPRPDCSPRP | 0.798
RRIRFRPPRLPRPRPRPQPYPRP | -0.34
RRIRNRPPRLPRPRPRPIKQPRP | -0.0298
RRIRQRPPRLPRPRPRPDPRPRP | -0.00604
RRIRGRPPRLPRPRPRPMYRPRP | 0.115
RRIRDRPPRLPRPRPRPSKMPRP | -0.0126
RRIRTRPPRLPRPRPRPLCYPRP | -0.452
RRIRVRPPRLPRPRPRPMVNPRP | -0.158
RRIRSRPPRLPRPRPRPCWEPRP | 0.311
RRIRARPPRLPRPRPRPVISPRP | 0.0798
RRIRQRPPRLPRPRPRPMCMPRP | 0.0416
RRIRKRPPRLPRPRPRPMQNPRP | 0.282
RRIRTRPPRLPRPRPRPSQCPRP | -0.239
RRIRQRPPRLPRPRPRPLVDPRP | 0.187
RRIRLRPPRLPRPRPRPIVGPRP | 0.0604

Sequence | shrunken log2 fold change
RRIRTRPPRLPRPRPRPGKNPRP | -0.24
RRIRPRPPRLPRPRPRPIHPPRP | 0.172
RRIRNRPPRLPRPRPRPYVNPRP | -0.121
RRIRVRPPRLPRPRPRPEMCPRP | -0.0885
RRIRWRPPRLPRPRPRPINSPRP | -0.498
RRIRARPPRLPRPRPRPILSPRP | 0.376
RRIRCRPPRLPRPRPRPENLPRP | -0.0208
RRIRYRPPRLPRPRPRPAVSPRP | 0.0627
RRIRIRPPRLPRPRPRPHLLPRP | 0.0103
RRIRMRPPRLPRPRPRPNWTPRP | 0.132
RRIRLRPPRLPRPRPRPDKPPRP | -0.228
RRIRMRPPRLPRPRPRPYSLPRP | -0.129
RRIRKRPPRLPRPRPRPSIRPRP | -0.375
RRIRARPPRLPRPRPRPNCLPRP | -0.111
RRIRERPPRLPRPRPRPGWRPRP | 0.0971
RRIRHRPPRLPRPRPRPAWIPRP | -0.0987
RRIRQRPPRLPRPRPRPINDPRP | -0.293
RRIRYRPPRLPRPRPRPMTWPRP | -0.31
RRIRLRPPRLPRPRPRPLFWPRP | 0.12
RRIRQRPPRLPRPRPRPPFHPRP | 0.102
RRIRPRPPRLPRPRPRPGAAPRP | 0.552
RRIRERPPRLPRPRPRPWIQPRP | -0.0122
RRIRPRPPRLPRPRPRPGICPRP | -0.0417
RRIRHRPPRLPRPRPRPPRPPRP | 0.664
RRIRHRPPRLPRPRPRPMADPRP | 0.0417
